Measurements as given in article PMC9482650, “Quantitative fragmentomics allow affinity mapping of interactomes” (Nature Communications, 2022).

What was measured:
Test in all cases: holdup assay
Parameters in all cases: key: below the threshold = too weak to quantify, mostly under pKd 3.1 to 4
Conditions in all cases: plain residues with an end cap or a label only (N-terminal biotin on a linker: ttds)
DLG4_3, P78352 = target: DLG4_3, P78352
LNX1_3, Q8TBB1 = target: LNX1_3, Q8TBB1
HTRA4, P83105 = target: T1, HTRA4, P83105
T1 sequence (P83105 378-476, limits assumed, looked up): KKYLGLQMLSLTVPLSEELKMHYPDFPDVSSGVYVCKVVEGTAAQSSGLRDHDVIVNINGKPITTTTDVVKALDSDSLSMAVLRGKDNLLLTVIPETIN

GRIP2_4, Q9C0E4 = target: GRIP2_4, Q9C0E4
GOPC, Q9HD26 = target: GOPC, Q9HD26
DLG3_1, Q92796 = target: T2, DLG3_1, Q92796
T2 sequence (Q92796 125-227, limits assumed, looked up): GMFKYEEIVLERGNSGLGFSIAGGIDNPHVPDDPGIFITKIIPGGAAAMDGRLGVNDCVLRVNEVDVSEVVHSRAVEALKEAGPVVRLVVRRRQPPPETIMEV

RAPGEF6, Q8TEU7 = target: T3, RAPGEF6, Q8TEU7
T3 sequence (Q8TEU7 525-625, limits assumed, looked up): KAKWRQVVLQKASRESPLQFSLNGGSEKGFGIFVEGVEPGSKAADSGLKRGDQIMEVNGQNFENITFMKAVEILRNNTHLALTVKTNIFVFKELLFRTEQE

ARHGAP21, Q5T5U3 = target: T4, ARHGAP21, Q5T5U3
T4 sequence (Q5T5U3 45-169, limits assumed, looked up): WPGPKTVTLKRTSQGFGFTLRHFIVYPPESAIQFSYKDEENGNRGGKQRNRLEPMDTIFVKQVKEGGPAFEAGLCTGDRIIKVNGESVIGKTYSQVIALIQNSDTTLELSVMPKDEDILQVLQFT

SCRIB_3, Q14160 = target: SCRIB_3, Q14160
IL16_3, Q14005 = target: IL16_3, Q14005
PDZRN4_1, Q6ZMN7 = target: PDZRN4_1, Q6ZMN7
NHERF4_2, Q86UT5 = target: NHERF4_2, Q86UT5
NHERF3_1, Q5T2W1 = target: T5, NHERF3_1, Q5T2W1
T5 sequence (Q5T2W1 4-100, limits assumed, looked up): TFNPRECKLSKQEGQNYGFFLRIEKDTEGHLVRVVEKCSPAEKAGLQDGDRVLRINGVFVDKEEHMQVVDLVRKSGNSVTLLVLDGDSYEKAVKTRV

APBA3_1, O96018 = target: T6, APBA3_1, O96018
T6 sequence (O96018 389-490, limits assumed, looked up): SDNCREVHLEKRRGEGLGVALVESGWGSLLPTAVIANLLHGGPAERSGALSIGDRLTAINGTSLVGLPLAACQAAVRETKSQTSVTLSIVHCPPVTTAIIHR

TX1BP3, O14907 = target: T7, TX1BP3, O14907
T7 sequence (O14907 10-122, limits assumed, looked up): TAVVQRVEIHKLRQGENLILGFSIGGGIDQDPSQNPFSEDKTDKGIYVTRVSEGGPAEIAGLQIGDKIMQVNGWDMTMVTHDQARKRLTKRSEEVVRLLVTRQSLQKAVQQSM

MPP2, Q14168 = target: T8, MPP2, Q14168
T8 sequence (Q14168 180-250, limits assumed, looked up): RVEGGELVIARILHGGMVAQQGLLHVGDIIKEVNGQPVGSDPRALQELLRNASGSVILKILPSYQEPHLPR

TIAM2, Q8IVF5 = target: T9, TIAM2, Q8IVF5
T9 sequence (Q8IVF5 885-986, limits assumed, looked up): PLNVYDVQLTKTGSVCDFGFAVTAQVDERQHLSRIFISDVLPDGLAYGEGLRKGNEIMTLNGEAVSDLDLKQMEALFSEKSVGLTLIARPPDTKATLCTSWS

SHANK1, Q9Y566 = target: T10, SHANK1, Q9Y566
T10 sequence (Q9Y566 658-767, limits assumed, looked up): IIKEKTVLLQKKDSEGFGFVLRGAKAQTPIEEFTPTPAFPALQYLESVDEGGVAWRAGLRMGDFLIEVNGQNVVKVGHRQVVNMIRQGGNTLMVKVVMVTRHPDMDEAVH

MAGI3_2, Q5TCQ9 = target: MAGI3_2, Q5TCQ9
LAP2, Q96RT1 = target: LAP2, Q96RT1
PTPN13_1, Q12923 = target: T11, PTPN13_1, Q12923
T11 sequence (Q12923 1088-1188, limits assumed, looked up): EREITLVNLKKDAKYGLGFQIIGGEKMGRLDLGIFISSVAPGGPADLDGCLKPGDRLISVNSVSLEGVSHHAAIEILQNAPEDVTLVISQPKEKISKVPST

PARD3_3, Q8TEW0 = target: PARD3_3, Q8TEW0
Inadl_10, Q8NI35 = target: Inadl_10, Q8NI35
Inadl_6, Q8NI35 = target: Inadl_6, Q8NI35
SNTG2, Q9NY99 = target: T12, SNTG2, Q9NY99
T12 sequence (Q9NY99 68-166, limits assumed, looked up): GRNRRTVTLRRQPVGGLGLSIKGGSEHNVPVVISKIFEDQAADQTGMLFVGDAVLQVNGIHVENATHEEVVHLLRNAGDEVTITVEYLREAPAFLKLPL

GRIP2_4, Q9C0E4, sequence (Q9C0E4 446-548): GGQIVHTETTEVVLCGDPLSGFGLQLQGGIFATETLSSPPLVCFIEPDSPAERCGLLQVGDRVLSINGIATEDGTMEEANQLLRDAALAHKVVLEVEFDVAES
Inadl_10, Q8NI35, sequence (Q8NI35 1673-1763): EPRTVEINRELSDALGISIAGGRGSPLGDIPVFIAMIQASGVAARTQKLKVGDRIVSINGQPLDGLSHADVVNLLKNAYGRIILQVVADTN
MAGI3_2, Q5TCQ9, sequence (Q5TCQ9 398-503): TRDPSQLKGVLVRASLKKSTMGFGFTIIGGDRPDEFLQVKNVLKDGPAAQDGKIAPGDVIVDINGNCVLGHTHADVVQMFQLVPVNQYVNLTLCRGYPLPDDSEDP
LNX1_3, Q8TBB1, sequence (Q8TBB1 500-596): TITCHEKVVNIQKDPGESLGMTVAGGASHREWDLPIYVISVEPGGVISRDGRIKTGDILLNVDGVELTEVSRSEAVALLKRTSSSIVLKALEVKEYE
IL16_3, Q14005, sequence (Q14005 1107-1207): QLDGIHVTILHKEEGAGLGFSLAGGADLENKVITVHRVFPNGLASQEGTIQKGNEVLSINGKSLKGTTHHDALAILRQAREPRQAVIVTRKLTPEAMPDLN
LAP2, Q96RT1, sequence (Q96RT1 other isoform, or with tags, fused parts or gaps): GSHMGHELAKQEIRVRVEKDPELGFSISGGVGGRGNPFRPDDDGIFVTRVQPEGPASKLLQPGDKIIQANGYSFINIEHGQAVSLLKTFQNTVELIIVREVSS
PARD3_3, Q8TEW0, sequence (Q8TEW0 582-685): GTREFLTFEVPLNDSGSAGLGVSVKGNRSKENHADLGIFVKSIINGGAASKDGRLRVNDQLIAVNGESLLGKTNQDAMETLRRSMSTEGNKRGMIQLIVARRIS
DLG4_3, P78352, sequence (P78352 306-403): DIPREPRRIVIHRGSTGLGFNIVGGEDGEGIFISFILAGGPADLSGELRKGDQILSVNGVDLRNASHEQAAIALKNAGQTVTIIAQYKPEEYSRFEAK
NHERF4_2, Q86UT5, sequence (Q86UT5 220-308): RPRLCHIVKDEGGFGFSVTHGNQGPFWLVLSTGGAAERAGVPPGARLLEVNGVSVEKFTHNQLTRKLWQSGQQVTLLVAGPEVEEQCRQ
Inadl_6, Q8NI35, sequence (Q8NI35 1058-1167): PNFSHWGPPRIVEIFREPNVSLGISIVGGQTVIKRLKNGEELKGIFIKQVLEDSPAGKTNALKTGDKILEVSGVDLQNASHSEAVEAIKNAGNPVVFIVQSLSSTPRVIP
SCRIB_3, Q14160, sequence (Q14160 999-1103): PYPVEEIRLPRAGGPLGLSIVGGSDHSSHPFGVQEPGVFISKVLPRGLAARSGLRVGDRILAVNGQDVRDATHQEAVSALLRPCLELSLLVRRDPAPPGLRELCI
PDZRN4_1, Q6ZMN7, sequence (Q6ZMN7 213-318): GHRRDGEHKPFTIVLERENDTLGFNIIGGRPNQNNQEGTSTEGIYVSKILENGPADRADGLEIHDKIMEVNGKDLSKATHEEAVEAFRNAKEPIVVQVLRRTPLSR

STLTIFETAL [ABCC4, O15439]
pKd (DLG4_3, P78352): 3.85
pKd (LNX1_3, Q8TBB1): below the threshold
pKd (HTRA4, P83105): below the threshold
pKd (GRIP2_4, Q9C0E4): below the threshold
pKd (GOPC, Q9HD26): 4.52
pKd (DLG3_1, Q92796): 3.84
pKd (RAPGEF6, Q8TEU7): below the threshold
pKd (ARHGAP21, Q5T5U3): 4.53
pKd (SCRIB_3, Q14160): 5.59
pKd (IL16_3, Q14005): below the threshold
pKd (PDZRN4_1, Q6ZMN7): 5.42
pKd (NHERF4_2, Q86UT5): below the threshold
pKd (NHERF3_1, Q5T2W1): 6.21
pKd (APBA3_1, O96018): below the threshold
pKd (TX1BP3, O14907): 5.11
pKd (MPP2, Q14168): below the threshold
pKd (TIAM2, Q8IVF5): below the threshold
pKd (SHANK1, Q9Y566): 5.1
pKd (MAGI3_2, Q5TCQ9): 4
pKd (LAP2, Q96RT1): 4.57
pKd (PTPN13_1, Q12923): below the threshold
pKd (PARD3_3, Q8TEW0): 4.31
pKd (Inadl_10, Q8NI35): 3.52
pKd (Inadl_6, Q8NI35): 4.89
pKd (SNTG2, Q9NY99): 4.97
